This note sets out measurements from patent US20260274955A1 (JANUX THERAPEUTICS, published 2026).

The target of one experiment is T1, Anti-CD28 Fab (SEQ ID NOs: 202, 203).
T1 construct: biotinylated and captured on neutravidin coated plates in the phage ELISA
The experiment in a line: phage ELISA, Fab on plate, CD28 antigen as competitor. In general terms: An ELISA detects its analyte on a solid surface through an enzyme-linked reagent.
T1 sequence (VH, as listed by the source, chain 1 of 2): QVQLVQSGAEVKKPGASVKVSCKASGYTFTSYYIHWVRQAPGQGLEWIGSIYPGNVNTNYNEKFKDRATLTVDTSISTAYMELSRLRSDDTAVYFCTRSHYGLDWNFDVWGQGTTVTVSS
T1 sequence (VL, as listed by the source, chain 2 of 2): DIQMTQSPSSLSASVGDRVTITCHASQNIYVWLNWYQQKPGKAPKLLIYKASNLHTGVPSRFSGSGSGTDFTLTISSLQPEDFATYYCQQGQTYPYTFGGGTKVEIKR
On to YCDGHAPIYMQKCL [Phage-747], for which the “Anti-CD28 Fab signal in the presence of CD28” value (from here on “Anti-CD28 Fab signal … of CD28”) was determined as 0.06. In the case of YCEGHIPAYMAKCL [Phage-746], the “Anti-CD28 Fab signal … of CD28” value stood at 0.08. Turning to YCEGHLWEYMKKCL [Phage-748], the “Anti-CD28 Fab signal … of CD28” value was 0.07.

Another experiment concerns the target Anti-CD28 Fab (SEQ ID NOs: 202, 203). The experiment is described as follows: phage binding ELISA on captured Fab.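 Also: clonal phage supernatants added briefly to wells pre-incubated with CD28 antigen or with blocking buffer only, then washed, bound phage read by ELISA using HRP-coupled anti-M13 antibody.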
Target sequence in this assay (VH, as listed by the source, chain 1 of 2): as the sequence (VH, as listed by the source, chain 1 of 2) above
Target sequence in this assay (VL, as listed by the source, chain 2 of 2): as the sequence (VL, as listed by the source, chain 2 of 2) above
Procedure: Clonal phage were harvested as crude supernatants and screened via standard ELISAs. […] Prior to the addition of clonal phage, wells were incubated with blocking buffer and CD28 antigen or blocking buffer alone. Without washing or aspirating, clonal phage supernatants were then added to the wells and incubated for a short time. Wells were then washed followed by detection of bound phage using a horse radish conjugated anti-M13 antibody.
For ACDTYFAGMINECF [Phage-5], the “Anti-CD28 Fab signal” value was found to be 0.92.

As to FMCLPQNPHPLCFK [Phage-3], the “Anti-CD28 Fab signal” value was found to be 0.84. For the molecule GCQYPWAFDAMSCP [Phage-6], the “Anti-CD28 Fab signal” value is 2.38. Take YCAGHMPQYEVKCL [Phage-21]: the “Anti-CD28 Fab signal” value came to 0.22. Take WCWDYKLWVPTQCP [Phage-7]: the “Anti-CD28 Fab signal” value came out at 2.27.

Regarding ECHWSMWAVGHACF [Phage-9], the “Anti-CD28 Fab signal” value was determined as 1.77. With WCWDYKLWVPMTCP [Phage-11], the “Anti-CD28 Fab signal” value came out at 2.51. With YWSCFQIPFTCFYF [Phage-1], the “Anti-CD28 Fab signal” value stood at 1.44. As for YWYCSPSIVRCVLV [Phage-15], the “Anti-CD28 Fab signal” value turned out to be 1.51. As to DCWWMFESYPGRCI [Phage-12], the “Anti-CD28 Fab signal” value stood at 1.65.

Consider YCEGHSPEYMAKCL [Phage-74], for which the “Anti-CD28 Fab signal” value stood at 2.35. Turning to YCDGHLPEYMMKCL [Phage-78], the “Anti-CD28 Fab signal” value was determined as 2.34. On the same count and under the same terms, in the case of YCEGHAAEYMEKCL [Phage-104] it was 2.3; in that of YCDGHLPIYMSKCL [Phage-84], 2.32. For the molecule YCDGHLPMYMQKCL [Phage-83], the “Anti-CD28 Fab signal” value was 2.33.

In the case of YCDGHSQEYMMKCL [Phage-111], the “Anti-CD28 Fab signal” value was found to be 2.28.

As to YCDGHVPEYMAKCL [Phage-108], the “Anti-CD28 Fab signal” value came to 2.29. Take YCEGHLPEYMLKCL [Phage-87]: the “Anti-CD28 Fab signal” value came to 2.32. In the case of YCDGHSSEYMAKCL [Phage-113], the “Anti-CD28 Fab signal” value came out at 2.28. YCQGHAPEYMAKCL [Phage-110]: the “Anti-CD28 Fab signal” value stood at 2.28. For the molecule YCEGHLPQYMAKCL [Phage-81], the “Anti-CD28 Fab signal” value amounted to 2.34.

For the molecule YCDGHLPEYMSKCL [Phage-75], the “Anti-CD28 Fab signal” value came out at 2.35.

With YCSGHLPQYMQKCL [Phage-112], the “Anti-CD28 Fab signal” value was 2.28. On to YCDGHLPMYMMKCL [Phage-109], for which the “Anti-CD28 Fab signal” value turned out to be 2.28.

Take YCDGHSPLYMWKCL [Phage-82]: the “Anti-CD28 Fab signal” value was determined as 2.34.

As to YCDGHLPQYMAKCL [Phage-76], the “Anti-CD28 Fab signal” value came out at 2.35. With YCDGHLPQYMWKCL [Phage-107], the “Anti-CD28 Fab signal” value turned out to be 2.29. Consider YCAGHLPEYMEKCL [Phage-128], for which the “Anti-CD28 Fab signal” value came out at 2.24. Still for that read-out and setting: in the case of YCAGMSTIQLWLKC [Phage-20] it was 2.16. Consider WCWDYREWVPMTCP [Phage-8], for which the “Anti-CD28 Fab signal” value amounted to 2.3. As for WCWYYREWVPMTCP [Phage-14], the “Anti-CD28 Fab signal” value is 1.85.

Consider YCAGHSPINIGKCL [Phage-10], for which the “Anti-CD28 Fab signal” value turned out to be 1.49. WICDKSGSIMLCRA [Phage-17]: the “Anti-CD28 Fab signal” value is 0.91. For WECLKYTEANACTY [Phage-2], the “Anti-CD28 Fab signal” value was determined as 1.55. Still for that read-out and setting: the result for YCAGHTEEHYVKCM [Phage-22] reads 0.62; that for DCPWLSGFSRPLLC [Phage-19], 1.27; that for YCMGHSHEHIWKCL [Phage-23], 0.87. With PDCQTILFKPWCVR [Phage-4], the “Anti-CD28 Fab signal” value is 2.09. As for PDCHTILFKPWCVR [Phage-16], the “Anti-CD28 Fab signal” value came out at 1. On to YCDGHSPMYILKCL [Phage-79], for which the “Anti-CD28 Fab signal” value is 2.34.

For the molecule SCAAGASYAWPYCL [Phage-18], the “Anti-CD28 Fab signal” value stood at 1.49. As for YCAGHAWQYINKCL [Phage-13], the “Anti-CD28 Fab signal” value was found to be 0.64.

Consider YCAGHSHEYLAKCE [Phage-24], for which the “Anti-CD28 Fab signal” value stood at 0.86.

A further experiment deals with T1, Anti-CD28 Fab (SEQ ID NOs: 202, 203). The experiment in a line: phage ELISA, Fab on plate.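 Also: crude clonal phage supernatants added to wells pretreated with blocking buffer with or without CD28 antigen, then bound phage read out via HRP-linked anti-M13 antibody.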
Consider YCDGHAPIYMQKCL [Phage-747], for which the “Anti-CD28 Fab (SEQ ID NOs: 202, 203) signal” value came to 1.06.

In the case of YCEGHIPAYMAKCL [Phage-746], the “Anti-CD28 Fab (SEQ ID NOs: 202, 203) signal” value is 1.06. As for YCEGHLWEYMKKCL [Phage-748], the “Anti-CD28 Fab (SEQ ID NOs: 202, 203) signal” value is 1.06.
